According to the supplement of paper PMC10126150:
± gives the standard deviation of the averaged measurements.

System: ATP
Test: switch fluorescence ratio, 500 uM ATP over buffer (Cy3 cluster intensity, sum of 5 cycles each) (fold (ratio)); higher = stronger signal-on switching upon ATP binding; sequences stand for … in TCGTCGGCAGCGTCAGATGTGTATAAGAGACAGTTTTTTTTTTTTTTTTTTTTTTTTT…TC
Settings: aptamer strand: ATP DNA aptamer (quencher-CACCTGGGGGAGTATTGCGGAGGAAGG + anchor), 100 nM annealed; ATP concentration: 500 uM
Outline: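 The quencher-labelled ATP aptamer, at 100 nM, was annealed to Cy3-labelled switching-strand clusters on a modified Illumina MiSeq flow-cell. The clusters were imaged in selection buffer, then after 15 min with 500 uM ATP at 22 °C, and this buffer/ATP cycle ran five times with NaOH stripping and re-annealing between runs. Per-cluster fluorescence ratios, summed target-cycle over summed buffer-cycle Cy3 intensity, were averaged per switch-domain sequence. Clusters outside 100-1000 RFU were excluded.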
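Note: ATP exposure 15 min at 22 °C before imaging.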

Row | Sequence | switch fluorescence ratio
1 | TGCAGGGGCG | 1.04 ± 0.14
2 | CGGGCGGGGC | 1.04 ± 0.028
3 | TGGATTATAG | 1.02 ± 0.033
4 | CGGGCTAAGG | 0.986 ± 0.018
5 | GTGGGGTGTT | 0.985 ± 0.02
6 | AAAATGTGGT | 1 ± 0.015
7 | GCCGGGGTTG | 1 ± 0.021
8 | TCAAGGCACA | 1.089 ± 0.01
9 | AAGTACGGCC | 1.16 ± 0.025
10 | CGGTGATCGG | 0.996 ± 0.013
11 | ATTCAGTTGC | 1.08 ± 0.072
12 | TTTATGAGGG | 1.02 ± 0.047
13 | TACCGTTTTT | 1.01 ± 0.045
14 | GATTATATCT | 0.981 ± 0.033
15 | CGGGGAATCA | 0.991 ± 0.038
16 | TTTCGAGCTT | 1.01 ± 0.022
17 | GATAGGTGAG | 1.01 ± 0.024
18 | CGGGGGAGTC | 1.02 ± 0.027
19 | GAGGGGCTGT | 0.981 ± 0.038
20 | TTCGAGACTT | 1.05 ± 0.055
21 | TTGGAATTCA | 1.02 ± 0.071
22 | TGGCCGGGCA | 2.13 ± 1.6
23 | ACAGGGTTGG | 1.02 ± 0.03

Row | Sequence | switch fluorescence ratio
24 | TTAGCGGGGG | 1.03 ± 0.06
25 | TCCGGTTTTA | 0.981 ± 0.02
26 | TAGGTCATGG | 0.985 ± 0.011
27 | GCTGGATCCG | 1.07 ± 0.11
28 | ATTCGAAGGT | 1.004 ± 0.0044
29 | ATATGCTATC | 1.02 ± 0.014
30 | TTAGGACGGC | 0.876 ± 0.02
31 | TAATTTTTGG | 0.992 ± 0.023
32 | TGGTGTTTTA | 0.994 ± 0.023
33 | AACGTACAGG | 1.65 ± 0.15
34 | TTCGGATTCG | 0.968 ± 0.03
35 | GATGCTAGAC | 3 ± 0.11
36 | GATGTCTGCT | 1.019 ± 0.0098
37 | TTGTTAATAT | 1 ± 0.035
38 | CAAATTAGGG | 0.971 ± 0.036
39 | TAGGGATGGT | 0.979 ± 0.022
40 | TGGGGTATTA | 0.998 ± 0.018
41 | ATAACGTTTT | 1.02 ± 0.019
42 | TTTTATTGGT | 0.9738 ± 0.0075
43 | AAAAAAAGAT | 1.01 ± 0.039
44 | CTATGAGTGA | 1.01 ± 0.018
45 | TCATACCGTA | 1.09 ± 0.022
46 | ATCTGTGATG | 0.987 ± 0.024

Row | Sequence | switch fluorescence ratio
47 | AGGGGAGTTA | 1.02 ± 0.051
48 | TAAAGATGAT | 1.01 ± 0.012
49 | GCCGAAATGT | 1.06 ± 0.097
50 | GAATGGGATT | 0.976 ± 0.018
51 | AGGCTCCTCT | 1.02 ± 0.025
52 | AACGAGGCAG | 1.21 ± 0.038
53 | AGGAAGGTTT | 0.993 ± 0.041
54 | TCCATTAGTT | 1.04 ± 0.069
55 | TGGCACGGGC | 1.02 ± 0.047
56 | GAACTCGGGG | 1.019 ± 0.0051
57 | AGAAAAGGTG | 1.19 ± 0.13
58 | AAAAAGTTTG | 1 ± 0.04
59 | TGAGCTATAT | 1.42 ± 0.077
60 | ACTTTTAAGG | 0.983 ± 0.024
61 | CGATGGGGAC | 1.14 ± 0.019
62 | ACCGTGAAGG | 0.99924 ± 8.2e-05
63 | AGAGCATGAT | 1.03 ± 0.024
64 | TAAAAGACGG | 1.08 ± 0.056
65 | TGCATAATCT | 1.04 ± 0.026
66 | TCTTGCAAGG | 1.11 ± 0.17
67 | TTCGATGCAT | 1.58 ± 0.43
68 | GGGGGGGTAT | 1.01 ± 0.036
69 | GGGTTGATTA | 0.9898 ± 0.0084

Row | Sequence | switch fluorescence ratio
70 | AAGTCCGGCA | 1 ± 0.037
71 | CAGGGTATTT | 0.981 ± 0.032
72 | ACACGTTGGC | 1.05 ± 0.06
73 | AACGGGAGAC | 2.52 ± 0.24
74 | AAAGATGAGG | 0.974 ± 0.029
75 | CAGGGACATT | 1.08 ± 0.067
76 | AGGAGTTTGC | 1.068 ± 0.0073
77 | CAGGGTGATG | 0.985 ± 0.024
78 | ATTCACTTAG | 1.09 ± 0.011
79 | AGTTGGGTGT | 1.01 ± 0.013
80 | TGGGGGCCAA | 0.965 ± 0.012
81 | GTAGTCGGGT | 1.006 ± 0.0044
82 | GTTAGGGGAT | 1 ± 0.011
83 | TTTGCATGAA | 0.992 ± 0.011
84 | TGCGGGGGCT | 1.002 ± 0.0025
85 | GCGGGGGGCA | 1.03 ± 0.055
86 | CGCGGAGTAG | 0.9869 ± 0.0043
87 | TTCGGAGTTG | 1 ± 0.022
88 | TTTAAAAATA | 0.9966 ± 0.0049
89 | CAGGTGTGGC | 1.11 ± 0.013
90 | TTAGAGCTTT | 0.975 ± 0.021
91 | ACTGTGTACC | 1.04 ± 0.015
92 | GGGATAAGGT | 0.979 ± 0.03

Row | Sequence | switch fluorescence ratio
93 | GGTCAAGCTG | 1 ± 0.044
94 | AGTAGGCGGT | 0.993 ± 0.023
95 | AGGTTGCGAG | 0.989 ± 0.019
96 | TAGGGCGCCG | 1.0192 ± 0.00067
97 | TGGGATATTA | 0.9995 ± 0.007
98 | TCGGGGTAGC | 0.974 ± 0.025
99 | TGGGTGGGAA | 1.02 ± 0.04
100 | TCTTGGGCTG | 0.9719 ± 0.0073
101 | CAATGTGTCT | 1 ± 0.033
102 | TAACTCTTTT | 0.978 ± 0.044
103 | TGGGGCGGGT | 1.02 ± 0.017
104 | ACGGGGGCTT | 1.04 ± 0.062
105 | CAGGTTTAGT | 0.9682 ± 0.0043
106 | TGCTCCAAGT | 1.03 ± 0.013
107 | TCTTGTTTTG | 0.994 ± 0.048
108 | CGGGGGTCCT | 0.986 ± 0.015
109 | TGTGCTGCTG | 1.06 ± 0.02
110 | GTTTTGGGTG | 1.09 ± 0.058
111 | AGTGTTTGGT | 0.989 ± 0.021
112 | GTGGTTTTTG | 0.968 ± 0.025
113 | TTTTAAGAAA | 3.11 ± 3
114 | CCTGGGGATA | 1.04 ± 0.024
115 | AGGGGATAGG | 0.98 ± 0.046

Row | Sequence | switch fluorescence ratio
116 | AAAAATTTGG | 1 ± 0.06
117 | TTGGGAAGGT | 0.982 ± 0.049
118 | CGGTGGGTCT | 1.006 ± 0.0015
119 | ACATCGGGCT | 1.02 ± 0.027
120 | CTTCCACGGT | 1.21 ± 0.12
121 | ACTCAGGAGT | 1.011 ± 0.0031
122 | AGTTGCTAAG | 0.986 ± 0.035
123 | TGAAAAGGGG | 0.998 ± 0.052
124 | GCCTGGGGGG | 1.02 ± 0.042
125 | AAAACTTAGG | 0.978 ± 0.012
126 | GCGGACCGGT | 0.968 ± 0.04
127 | GAAATTCACA | 1.04 ± 0.031
128 | TCCTACTGTT | 0.9957 ± 0.0061
129 | GGTTGAACCG | 1.01 ± 0.06
130 | TCAAACTTTA | 1.03 ± 0.025
131 | GTTTCGCGAC | 1.19 ± 0.026
132 | TCAGACGTTT | 1.011 ± 0.009
133 | GGATAGAGTA | 1.01 ± 0.0075
134 | TTTTTACGGT | 1.1 ± 0.15
135 | ACAGCGGGTG | 1.087 ± 0.01
136 | CGGGCAGCGG | 0.955 ± 0.06
137 | ATTAGAACGG | 1.01 ± 0.022
138 | TTAGGGTCGC | 0.993 ± 0.035

Row | Sequence | switch fluorescence ratio
139 | TAGGTAGTGG | 1.01 ± 0.027
140 | GGTTTCTGAA | 0.998 ± 0.02
141 | CCTCTATATT | 1.181 ± 0.011
142 | TGCCGGGGGG | 0.99 ± 0.011
143 | CTAATTTAGG | 1 ± 0.018
144 | CCATGGGCGA | 1.1 ± 0.02
145 | GTGGATATTG | 1 ± 0.028
146 | AAGGGAGATT | 0.968 ± 0.011
147 | CGTGGGCAAG | 0.996 ± 0.021
148 | GGCGGGGGAC | 0.987 ± 0.057
149 | GTGGATGCGG | 0.962 ± 0.038
150 | TATAATATAT | 1 ± 0.029
151 | ATAGAGGAGA | 0.992 ± 0.048
152 | CTGTTTCGGG | 0.978 ± 0.029
153 | AAGAGGGTTT | 1.01 ± 0.05
154 | GAGAGTACTT | 0.9945 ± 0.0093
155 | AGTGGGCAGG | 1.04 ± 0.02
156 | GGGCTAGGGT | 1.02 ± 0.023
157 | TTATGAGAGC | 0.964 ± 0.022
